Results published in IntAct's records for PubMed 26365382.

B1: Zinc finger protein RFP (Homo sapiens), P14373 (parent)
chain: MASGSVAECLQQETTCPVCLQYFAEPMMLDCGHNICCACLARCWGTAETNVSCPQCRETFPQRHMRPNRHLANVTQLVKQLRTERPSGPGGEMGVCEKHREPLKLYCEEDQMPICVVCDRSREHRGHSVLPLEEAVEGFKEQIQNQLDHLKRVKDLKKRRRAQGEQARAELLSLTQMEREKIVWEFEQLYHSLKEHEYRLLARLEELDLAIYNSINGAITQFSCNISHLSSLIAQLEEKQQQPTRELLQDIGDTLSRAERIRIPEPWITPPDLQEKIHIFAQKCLFLTESLKQFTEKMQSDMEKIQELREAQLYSVDVTLDPDTAYPSLILSDNLRQVRYSYLQQDLPDNPERFNLFPCVLGSPCFIAGRHYWEVEVGDKAKWTIGVCEDSVCRKGGVTSAPQNGFWAVSLWYGKEYWALTSPMTALPLRTPLQRVGIFLDYDAGEVSFYNVTERCHTFTFSHATFCGPVRPYFSLSYSGGKSAAPLIICPMSGIDGFSGHVGNHGHSMETSP

Variants of: B1
Conditions: with magl2_human MAGEL2, Q9UJ55
magl2_human MAGEL2, Q9UJ55, sequence (Q9UJ55 whole entry): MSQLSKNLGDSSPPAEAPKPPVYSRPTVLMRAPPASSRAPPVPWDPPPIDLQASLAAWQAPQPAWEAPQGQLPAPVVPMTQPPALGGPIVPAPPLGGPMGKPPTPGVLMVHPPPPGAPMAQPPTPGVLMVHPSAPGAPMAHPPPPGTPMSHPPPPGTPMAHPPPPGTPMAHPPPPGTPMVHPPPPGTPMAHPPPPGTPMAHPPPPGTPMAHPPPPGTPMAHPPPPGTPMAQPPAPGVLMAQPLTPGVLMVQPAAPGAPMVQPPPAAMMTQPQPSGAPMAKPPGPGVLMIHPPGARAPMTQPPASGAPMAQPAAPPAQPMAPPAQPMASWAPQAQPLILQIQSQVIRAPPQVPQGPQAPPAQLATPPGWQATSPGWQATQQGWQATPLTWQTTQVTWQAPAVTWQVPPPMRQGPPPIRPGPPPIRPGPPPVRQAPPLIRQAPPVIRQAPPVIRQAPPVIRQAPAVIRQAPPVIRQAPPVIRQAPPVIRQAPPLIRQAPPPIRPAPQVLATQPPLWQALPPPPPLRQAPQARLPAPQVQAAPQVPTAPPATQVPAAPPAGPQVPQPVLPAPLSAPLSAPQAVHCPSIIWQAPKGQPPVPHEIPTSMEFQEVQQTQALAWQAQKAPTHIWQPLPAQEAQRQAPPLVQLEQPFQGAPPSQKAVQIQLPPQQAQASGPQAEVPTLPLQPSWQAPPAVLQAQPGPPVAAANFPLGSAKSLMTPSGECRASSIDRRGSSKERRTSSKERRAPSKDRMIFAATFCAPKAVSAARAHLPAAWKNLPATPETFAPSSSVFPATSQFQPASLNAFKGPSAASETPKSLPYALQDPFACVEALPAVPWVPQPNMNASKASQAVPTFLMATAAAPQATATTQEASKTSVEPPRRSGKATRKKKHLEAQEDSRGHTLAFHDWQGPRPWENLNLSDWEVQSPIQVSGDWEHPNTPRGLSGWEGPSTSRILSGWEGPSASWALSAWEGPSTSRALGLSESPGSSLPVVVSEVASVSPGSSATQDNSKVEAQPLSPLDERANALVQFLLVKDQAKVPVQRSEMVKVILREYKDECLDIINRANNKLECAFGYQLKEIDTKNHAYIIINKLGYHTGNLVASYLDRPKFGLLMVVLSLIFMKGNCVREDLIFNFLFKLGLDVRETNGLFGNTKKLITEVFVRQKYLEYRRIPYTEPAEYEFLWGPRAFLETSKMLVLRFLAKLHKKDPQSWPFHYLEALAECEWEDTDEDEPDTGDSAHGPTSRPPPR

effect of a mutation on the interaction | Variant
with no effect | K304R;K380R;K382R
